These are literature values, as cited in article PMC4452390.

The series addresses EGFR (Homo sapiens) (UniProt P00533).

The term Kd denotes a measure of binding affinity in units of concentration. Regarding EGF (from UniProt P01133), the Kd is 3 nM.
